Values quoted from earlier work, collected in publication PMC8567204.
Like-named read-outs stand apart in the source and are kept apart here. Blank lines part the entries; values can stand above or below the substance they belong to.

Columns and labels:
[1] = biological target: Trigger factor (Escherichia coli) (UniProt P0A850)
[2] = biological target: HscA (Escherichia coli) (UniProt P0A6Z1)
[3] = biological target: HscA (Escherichia coli) (UniProt P0A6Z1); remark: listed apart in the source
[4] = biological target: HscB (Escherichia coli) (UniProt P0A6L9)
[5] = biological target: Fyn (native) SH3 (UniProt P06241)
[6] = biological target: Fyn (unfolded) SH3 (UniProt P06241)
Sequence of Fyn (unfolded) SH3 (P06241 82-143): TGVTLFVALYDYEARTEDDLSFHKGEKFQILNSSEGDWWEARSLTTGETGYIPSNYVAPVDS

Sequence of apo-IscU (P0ACD4 whole entry): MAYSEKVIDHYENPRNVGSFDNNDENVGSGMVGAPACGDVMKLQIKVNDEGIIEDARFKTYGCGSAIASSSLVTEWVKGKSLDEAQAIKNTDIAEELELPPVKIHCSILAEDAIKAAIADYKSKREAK
Sequence of HscA (Escherichia coli) (P0A6Z1 whole entry): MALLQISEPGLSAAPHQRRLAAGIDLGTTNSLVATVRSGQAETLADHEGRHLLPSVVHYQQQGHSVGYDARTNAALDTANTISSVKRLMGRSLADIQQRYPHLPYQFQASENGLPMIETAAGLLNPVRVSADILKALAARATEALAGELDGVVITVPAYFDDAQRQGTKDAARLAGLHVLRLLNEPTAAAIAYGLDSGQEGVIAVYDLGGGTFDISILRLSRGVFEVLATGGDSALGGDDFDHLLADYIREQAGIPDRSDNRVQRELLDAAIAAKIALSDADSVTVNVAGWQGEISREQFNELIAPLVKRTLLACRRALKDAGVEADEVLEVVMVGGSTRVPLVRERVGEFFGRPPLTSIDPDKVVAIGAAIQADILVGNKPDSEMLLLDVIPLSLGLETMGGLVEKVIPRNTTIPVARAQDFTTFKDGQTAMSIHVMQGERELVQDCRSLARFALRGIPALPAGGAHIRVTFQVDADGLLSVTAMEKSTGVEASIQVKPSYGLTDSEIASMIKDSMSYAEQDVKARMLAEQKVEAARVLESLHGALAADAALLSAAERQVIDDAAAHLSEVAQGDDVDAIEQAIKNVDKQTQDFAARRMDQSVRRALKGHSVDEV
Sequence of Spy (P77754 24-161): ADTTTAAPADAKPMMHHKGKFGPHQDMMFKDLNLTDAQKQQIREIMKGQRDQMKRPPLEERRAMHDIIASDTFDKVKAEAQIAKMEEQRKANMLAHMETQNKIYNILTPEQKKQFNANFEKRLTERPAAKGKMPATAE
Sequence of HscB (Escherichia coli) (P0A6L9 whole entry): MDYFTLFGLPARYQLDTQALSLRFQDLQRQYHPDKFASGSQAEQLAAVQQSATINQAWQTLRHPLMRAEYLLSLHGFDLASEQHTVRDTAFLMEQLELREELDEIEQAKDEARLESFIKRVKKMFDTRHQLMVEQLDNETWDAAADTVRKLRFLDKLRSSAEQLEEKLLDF
Sequence of Trigger factor (P0A850 whole entry): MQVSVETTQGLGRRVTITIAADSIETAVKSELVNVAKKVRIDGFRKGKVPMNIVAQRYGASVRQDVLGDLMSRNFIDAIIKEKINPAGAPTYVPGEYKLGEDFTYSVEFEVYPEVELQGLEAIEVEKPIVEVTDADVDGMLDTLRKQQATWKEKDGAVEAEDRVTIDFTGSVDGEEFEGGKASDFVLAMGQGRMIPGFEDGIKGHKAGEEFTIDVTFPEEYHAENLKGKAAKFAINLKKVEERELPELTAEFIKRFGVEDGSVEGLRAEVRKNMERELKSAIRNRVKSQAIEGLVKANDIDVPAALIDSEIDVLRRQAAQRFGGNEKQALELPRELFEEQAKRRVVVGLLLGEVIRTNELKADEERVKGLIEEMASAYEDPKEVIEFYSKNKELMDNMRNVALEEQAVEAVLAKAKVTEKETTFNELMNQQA
Sequence of Fyn (native) SH3 (P06241 82-143): as the sequence (P06241 82-143) above

Substance: Trigger factor (from UniProt P0A850)
Kd [1]: 2 µM

Substance: apo-IscU (from UniProt P0ACD4)
Kd [2]: 37 µM
Kd [3]: 9 µM
Kd [4]: 11 µM

Kd [5]: 50 µM
Kd [6]: 3 µM
Substance: Spy (from UniProt P77754)
